Columns and labels:
W&Wlis cells [1] = assay: Measurement of intracellular ATP; assay type: cell-based, canine; conditions: linamarin (500 μg/ml) and/or glucose oxidase (5 mEU/ml), over time, versus untreated cells
Procedure: The levels of intracellular energy in the form of ATP decrease when a blockage of the mitochondrial electron transport chain occurs since it is the essential source of obtaining energy of the cells. […] This effect is due to the fact that the maximum H2O2 production by glucose oxidase occurs at short times because the cells have the ability of detoxifying the peroxide and due to the fact that glucose oxidase is inactivated over time by the serum proteins.
10^5 W&Wlis cells were seeded in test tubes with a screw-on cap and flat side (Nunc). After 24 hours, the medium was changed, adding linamarin (500 μg/ml) and glucose oxidase (5 mEU/ml) where appropriate. After 4, 8, 12, 24, 48 or 72 hours, the cells were centrifuged and processed following the instructions of the ATP Bioluminescence Assay Kit CLS II, of Roche Applied Science. The luminescence was analyzed with a Monolight 2010 luminometer (Analytical Luminescence Laboratory, San Diego) and expressed in relative light units (RLU).

W&Wlis cells [2] = assay: Determination of the extracellular peroxide concentration; assay type: cell-based, canine; conditions: 48 hours; 0.5 mg/ml of linamarin and/or 5 mEU/ml of glucose oxidase; control approximately 20 μM
Procedure: The H2O2 levels (FIG. 3B) produced extracellularly in the combined therapy were further studied in the invention. To do so, the amount of H2O2 present in the culture medium of W&Wlis cells at 48 hours in a treatment with 0.5 mg/ml of linamarin, in the presence of 5 mEU/ml of glucose oxidase or in the combination of both treatments, was analyzed although positive results were also obtained using other concentrations.
The samples to be analyzed were diluted in 1 ml of 0.1 M phosphate buffer pH 7.4. Then 3.7 EU/ml of peroxidase (Sigma-Aldrich, St. Louis, USA) and 0.1 mg/ml of ortho-dianisidine (Sigma-Aldrich, St. Louis, USA) were added. The samples were incubated at room temperature for 30 minutes and absorbances at 436 nm were determined. The H2O2 concentration was obtained by interpolation of the data obtained in a standard line performed with increasing concentrations of H2O2.

Swiss mice = assay: Toxicity of glucose oxidase in Swiss mice; assay type: in vivo; conditions: intraperitoneally and intravenously
Procedure: The toxicity of glucose oxidase was evaluated in Swiss mice weighing about 20 grams, intraperitoneally and intravenously inoculated with different amounts of the purified enzyme. […] This allowed establishing an optimal dose range for GO for the combined therapy in this type of animal.

W&Wlis cells [3] = assay: DNA content analysis by flow cytometry, labeling with propidium iodide; assay type: cell-based, canine; design: unit not given here; conditions: 0 μg lin, 5 mEU/ml GO
W&Wlis cells [4] = assay: Structural modifications of the mitochondrion (pDsRed2-mito, confocal microscopy); assay type: cell-based, canine; conditions: linamarin 500 μg/ml from 48 hours; glucose oxidase 5 mEU/ml; combination after 24 hours
Procedure: For the purpose of studying the mitochondrial dynamics occurring as a result of the oxidative stress caused by the activity of the claimed system, W&Wlis cells were stably transfected with the plasmid pdsRed2-mito (Clontech) containing the gene of the one red fluorescent protein carried by a transport signal peptide to the mitochondrion. This allowed viewing the mitochondria of cells treated with linamarin and glucose oxidase by fluorescence microscopy. […] This effect starts to be observed 48 hours after treatment with linamarin (FIG. 1B) and becomes more pronounced after 72 hours, a slight swelling of the fragments (FIG. 1C) being observed.
To study the structural modifications of the mitochondrion during therapy, the W&W and W&Wlis cells were transfected with the plasmid pDsRed2-mito (Clontech, BD Bioscience) containing the gene of a red fluorescent protein which is expressed exclusively in mitochondria. The transfection was performed similarly to the previous section and clones were selected by resistance to neomycin (0.75 and 1.5 mg/ml respectively). The cells from stable expression clones of the protein were seeded in multiwell plates on cover slips (2.5×10^4) and were treated with linamarin (50, 200 or 500 μg/ml) and glucose oxidase (5 mEU/ml). After the suitable incubation time for each experiment (24, 48 or 72 hours) elapsed, the cells were fixed with 4% paraformaldehyde. […]

W&Wlis cells [5] = assay: Analysis of the type of death by flow cytometry (annexin V-FITC/propidium iodide); assay type: cell-based, canine
Procedure: The annexin V-FITC and propidium iodide assay was performed in parallel by flow cytometry. The pattern of death of the system was analyzed when adding 5 mEU/ml of glucose oxidase and the combined therapy (5 mEU/ml of GO and 500 μg/ml of linamarin) at 48 hours, followed by the control of untreated cells and of the cells incubated with 500 μg/ml of linamarin at 96 hours. Furthermore, another group of cells was subjected to the same conditions except 10 mM of N-acetyl cysteine (NAC) were added. The cells treated with the combined therapy were subsequently studied at 48 hours in the absence and presence of 100 μM of Z-VAD-fmk, followed by the control of treatment of the cells with UV in the same conditions. Finally, the cells treated with the combined therapy were shown at 48 hours in the absence and presence of 300 μM of 1,5-isoquinolinediol (DIQ), observing that the pattern of death is not modified when PARP-1 is inhibited (FIG. 4).
10^5 W&Wlis cells were seeded in test tubes with a screw-on cap and flat side (Nunc). After 24 hours, different amounts of linamarin (50, 200 or 500 μg/ml) and glucose oxidase (5 mEU/ml) were added in the specified cases. In the appropriate assays, the medium was supplemented with N-acetyl cysteine (10 mM), 1,5-isoquinolinediol (300 μM) or Z-VAD-fmk (100 μM). […] They were centrifuged for 5 minutes at 1200 rpm and the cell precipitate was washed first with PBS and then with binding buffer (0.1 M Hepes/NaOH pH 7.4, 1.4 M NaCl and 25 mM CaCl2). The cells were again precipitated and resuspended in 100 μl of binding buffer supplemented with 5 μl of annexin V-FITC and 2.5 μg/ml of propidium iodide. The samples were incubated for 15 minutes in the dark. Data acquisition and analysis was carried out by means of a FACSCalibur flow cytometer (DB Biosciences) with the Cell Quest program.

W&Wlis cells [6] = assay: AIF location study by immunofluorescence; assay type: cell-based, canine; conditions: 5 mEU/ml glucose oxidase, with or without 500 μg/ml linamarin
Procedure: Nevertheless, the activation of AIF could be caused by a mechanism that is PARP-1-independent (Cregan, 2004). AIF is a protein residing in the mitochondrion and when activated, it translocates to the nucleus in which it activates apoptosis. The possible translocation of AIF was analyzed by immunofluorescence with antibodies specific against AIF of W&Wlis cells treated with the therapy.
The cells were seeded on cover slips in 24-well plates and were treated according to the requirements of each experiment. After the appropriate incubation time for each assay, the cells were fixed with 4% paraformaldehyde for 30 minutes at room temperature or methanol at −20° C. for 10 minutes. The samples were subsequently permeabilized 10 minutes with PBS supplemented with triton X-100 or 0.1% sodium dodecyl sulfate (SDS) and were blocked by incubating for 30 minutes with PBS with 0.1% triton X-100 and with 1% bovine serum albumin, or PBS with 0.01% SDS and a 10% fetal calf serum. They were subsequently incubated for 45 minutes with the primary antibody at room temperature or overnight at 4° C. The antibodies used were anti-linamarase (1/200, supplied by Monica Hughes) and anti-AIF (1/50, Cell Signaling Technology). The secondary antibody used was anti-rabbit IgG coupled to fluorescein (1/50, Amersham Pharmacia Biotech). […]

[7] = 0 μg lin, 5 mEU/ml GO, 48 hours, NAC (10 mM)
[8] = Table 4, 0 μg lin, 5 mEU/ml GO, 48 hours, Z-VAD-fmk (100 μM)
[9] = Table 4, 0 μg lin, 5 mEU/ml GO, 48 hours, control (no Z-VAD-fmk)
[10] = Table 5, GO, 32 hours, DIQ (300 μM)
[11] = Table 5, GO, 32 hours, control (no DIQ)
[12] = Table 5, GO, 48 hours, DIQ (300 μM)
[13] = Table 5, GO, 48 hours, control (no DIQ)

B1: GO: glucose oxidase enzyme catalyzing the conversion of glucose into gluconic acid, generating hydrogen peroxide (protein, UniProt P13006 17-605, looked up)
Glucose oxidase: LPHYIRSNGIEASLLTDPKDVSGRTVDYIIAGGGLTGLTTAARLTENPNISVLVIESGSYESDRGPIIEDLNAYGDIFGSSVDHAYETVELATNNQTALIRSGNGLGGSTLVNGGTWTRPHKAQVDSWETVFGNEGWNWDNVAAYSLQAERARAPNAKQIAAGHYFNASCHGVNGTVHAGPRDTGDDYSPIVKALMSAVEDRGVPTKKDFGCGDPHGVSMFPNTLHEDQVRSDAAREWLLPNYQRPNLQVLTGQYVGKVLLSQNGTTPRAVGVEFGTHKGNTHNVYAKHEVLLAAGSAVSPTILEYSGIGMKSILEPLGIDTVVDLPVGLNLQDQTTATVRSRITSAGAGQGQAAWFATFNETFGDYSEKAHELLNTKLEQWAEEAVARGGFHNTTALLIQYENYRDWIVNHNVAYSELFLDTAGVASFDVWDLLPFTRGYVHILDKDPYLHHFAYDPQYFLNELDLLGQAAATQLARNISNSGAMQTYFAGETIPGDNLAYDADLSAWTEYIPYHFRPNYHGVGTCSMMPKEMGGVVDNAARVYGVQGLRVIDGSIPPTQMSSHVMTVFYAMALKISDAILEDYASMQ
intracellular ATP levels (W&Wlis cells [1]): moderate and transitory reduction of ATP after 6 hours
extracellular H2O2 concentration in the culture medium (W&Wlis cells [2]): did not cause significant variations
toxicity (Swiss mice; daily doses between 0.25 and 0.1 EU/g): no harmful effect
toxicity (Swiss mice; doses of 1 and 0.5 EU/g, first 24 hours post-administration): lethal effect
DNA content by flow cytometry, labeling with propidium iodide (W&Wlis cells [3]; 24 hours): 1.94
DNA content by flow cytometry, labeling with propidium iodide (W&Wlis cells [3]; 48 hours): 1.03
mitochondrial pattern (W&Wlis cells [4]): did not cause any structural change in most of the mitochondria
Apoptosis (W&Wlis cells [5]; 0 μg lin, 5 mEU/ml GO, 24 h): 5.98
Necrosis (W&Wlis cells [5]; 0 μg lin, 5 mEU/ml GO, 24 h): 12.27
Apoptosis (W&Wlis cells [5]; 0 μg lin, 5 mEU/ml GO, 48 h): 8.34
Necrosis (W&Wlis cells [5]; 0 μg lin, 5 mEU/ml GO, 48 h): 4.50
Apoptosis (W&Wlis cells [5]; [7]): 5.98
Necrosis (W&Wlis cells [5]; [7]): 5.42
Apoptosis (W&Wlis cells [5]; [8]): 13.94
Necrosis (W&Wlis cells [5]; [8]): 18.92
Apoptosis (W&Wlis cells [5]; [9]): 3.27
Necrosis (W&Wlis cells [5]; [9]): 29.59
Apoptosis (W&Wlis cells [5]; [10]): 9.32
Necrosis (W&Wlis cells [5]; [10]): 16.69
Apoptosis (W&Wlis cells [5]; [11]): 6.50
Necrosis (W&Wlis cells [5]; [11]): 27.11
Apoptosis (W&Wlis cells [5]; [12]): 17.52
Necrosis (W&Wlis cells [5]; [12]): 20.89
Apoptosis (W&Wlis cells [5]; [13]): 12.92
Necrosis (W&Wlis cells [5]; [13]): 31.87
AIF location (W&Wlis cells [6]): typically mitochondrial AIF pattern
